In assay [1] the target is T1, atypical chemokine receptor ACKR3 (formerly CXCR7) (human, UniProt P25106 1-362). The experiment in a line: cell-based or functional assay.
In a further assay the target is mu opioid receptor (MOR) (human, UniProt P35372 1-400). The experiment in a line: cell-based or functional assay.
The target in assay [2] is delta opioid receptor (DOR) (human, UniProt P41143 1-372). The experiment in a line: cell-based or functional assay.
In assay [3] the target is kappa opioid receptor (KOR) (human, UniProt P41145 1-380). The experiment in a line: cell-based or functional assay.
In assay [4] the target is T1, atypical chemokine receptor ACKR3 …. Description: cell-based or functional assay. This is another data set of the same source.
Assay [5] has the same target. Description: flow cytometry on cells.
For assay [6] the target is unchanged. The experiment in a line: flow cytometry on cells. The source holds these as a separate data set.
In another assay the target is mouse ACKR3 (mouse, UniProt P56485 1-362). The experiment in a line: cell-based or functional assay.
Assay [7] has as its target ACKR3 C-terminally tagged with SmBiT (human, UniProt P25106 1-362). The experiment in a line: cell-based or functional assay.

No end group written: not given here.

T1 sequence (P25106 whole entry): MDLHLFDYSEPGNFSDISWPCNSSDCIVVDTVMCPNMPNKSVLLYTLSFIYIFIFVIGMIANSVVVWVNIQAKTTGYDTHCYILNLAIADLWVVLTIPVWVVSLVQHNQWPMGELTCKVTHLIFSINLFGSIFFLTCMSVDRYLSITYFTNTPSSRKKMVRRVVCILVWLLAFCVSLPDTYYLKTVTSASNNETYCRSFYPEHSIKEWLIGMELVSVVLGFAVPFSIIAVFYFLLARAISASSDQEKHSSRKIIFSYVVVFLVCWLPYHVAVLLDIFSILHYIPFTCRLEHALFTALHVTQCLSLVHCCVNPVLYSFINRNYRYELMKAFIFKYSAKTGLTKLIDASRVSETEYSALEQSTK
Sequence of mouse ACKR3 (P56485 whole entry): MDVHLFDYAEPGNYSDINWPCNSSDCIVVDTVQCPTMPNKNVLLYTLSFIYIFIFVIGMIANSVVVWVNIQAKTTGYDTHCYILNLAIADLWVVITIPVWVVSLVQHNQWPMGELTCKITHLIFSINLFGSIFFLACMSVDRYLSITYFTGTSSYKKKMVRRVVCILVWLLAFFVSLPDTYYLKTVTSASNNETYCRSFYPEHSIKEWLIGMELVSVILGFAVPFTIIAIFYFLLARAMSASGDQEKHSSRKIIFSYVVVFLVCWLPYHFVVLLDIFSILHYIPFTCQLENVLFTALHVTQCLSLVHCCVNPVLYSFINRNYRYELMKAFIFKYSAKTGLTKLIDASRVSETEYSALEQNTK
Sequence of ACKR3 C-terminally tagged with SmBiT (P25106 whole entry): as the sequence (P25106 whole entry) above
Sequence of kappa opioid receptor (KOR) (P41145 whole entry): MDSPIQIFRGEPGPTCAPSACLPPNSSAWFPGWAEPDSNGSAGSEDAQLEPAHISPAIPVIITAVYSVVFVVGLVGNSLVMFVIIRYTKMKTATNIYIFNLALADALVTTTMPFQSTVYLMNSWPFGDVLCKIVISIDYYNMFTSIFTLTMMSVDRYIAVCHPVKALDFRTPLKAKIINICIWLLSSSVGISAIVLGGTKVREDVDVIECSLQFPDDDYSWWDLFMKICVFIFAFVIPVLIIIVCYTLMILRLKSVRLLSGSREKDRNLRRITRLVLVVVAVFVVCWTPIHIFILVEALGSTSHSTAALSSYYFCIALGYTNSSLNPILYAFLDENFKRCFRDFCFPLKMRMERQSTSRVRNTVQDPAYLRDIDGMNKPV
Sequence of mu opioid receptor (MOR) (P35372 whole entry): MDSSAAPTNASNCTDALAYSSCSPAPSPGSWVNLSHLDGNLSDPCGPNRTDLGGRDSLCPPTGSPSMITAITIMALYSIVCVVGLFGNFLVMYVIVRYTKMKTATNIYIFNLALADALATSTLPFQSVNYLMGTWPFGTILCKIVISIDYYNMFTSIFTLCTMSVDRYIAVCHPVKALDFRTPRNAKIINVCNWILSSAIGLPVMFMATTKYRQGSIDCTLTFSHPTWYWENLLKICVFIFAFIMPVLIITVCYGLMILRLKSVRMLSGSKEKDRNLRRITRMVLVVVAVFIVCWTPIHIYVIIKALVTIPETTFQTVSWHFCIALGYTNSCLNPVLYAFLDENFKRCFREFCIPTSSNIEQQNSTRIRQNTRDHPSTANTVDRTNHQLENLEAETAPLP
Sequence of delta opioid receptor (DOR) (P41143 whole entry, stated change not applied): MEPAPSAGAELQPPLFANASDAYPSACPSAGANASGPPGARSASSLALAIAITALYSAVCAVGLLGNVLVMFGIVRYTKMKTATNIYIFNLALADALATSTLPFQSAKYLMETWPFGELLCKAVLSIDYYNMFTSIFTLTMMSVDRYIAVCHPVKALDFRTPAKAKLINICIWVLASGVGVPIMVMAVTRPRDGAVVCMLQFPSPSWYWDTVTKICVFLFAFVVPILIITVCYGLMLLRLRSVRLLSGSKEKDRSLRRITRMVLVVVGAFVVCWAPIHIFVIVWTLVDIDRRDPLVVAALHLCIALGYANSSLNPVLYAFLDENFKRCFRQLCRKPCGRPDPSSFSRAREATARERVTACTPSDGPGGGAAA

Regarding YGGFMRRV-NH2 [Adrenorphin], the “Supplementary Table 4: EC50 of β-arrestin-1 recruitment to ACKR3, U87 cells” value in assay [1] worked out at 109 nM. In addition, the “Supplementary Table 4: EC50 of β-arrestin-1 recruitment to MOR, U87 cells” value in the assay with mu opioid receptor (MOR) was determined as 101 nM. Besides, the “Supplementary Table 4: EC50 of β-arrestin-1 recruitment to DOR, U87 cells” value in assay [2] was 323 nM. The “Supplementary Table 4: EC50 of β-arrestin-1 recruitment to KOR, U87 cells” value in [3] turned out to be 65.6 nM. Moreover, in [4], the “Supplementary Table 9: EC50 of β-arrestin-1 recruitment to ACKR3, CHO cells” value (from here on “Supplementary Table 9: EC50 … CHO cells”) came to 22.5 nM; the “Supplementary Table 9: EC50 of β-arrestin-1 recruitment to ACKR3, HEK cells” value (“Supplementary Table 9: EC50 … HEK cells” for short) was determined as 72.6 nM; the “Supplementary Table 9: EC50 of β-arrestin-2 recruitment to ACKR3, U87 cells” value (“Supplementary Table 9: EC50 … U87 cells” for short) was 81.5 nM. The IC50 – broadly, the concentration that gives 50% inhibition – in assay [5] amounted to 41.2 nM.
As to FGGFTGARKSARKLANQ [Nociceptin], in [4], the “Supplementary Table 9: EC50 … CHO cells” value is about 10000 nM and the “Supplementary Table 9: EC50 … U87 cells” value is over 10000 nM.
Take FGGFTGARKSARK-NH2 [Nociceptin 1-13-NH2]: in [4], the “Supplementary Table 9: EC50 … CHO cells” value is about 10000 nM; the “Supplementary Table 9: EC50 … HEK cells” value is about 10000 nM; the “Supplementary Table 9: EC50 … U87 cells” value was about 10000 nM. For the same molecule, the IC50 in assay [5] was over 10000 nM.
Take FGGFMRRK(Cy5) [LIH383-Cy5]: in [6], the EC50 (usually the concentration at which the effect is half-maximal) stood at 6.65 nM.
GGFLRRIRPKLKWDNQ [Dynorphin A 2-17] showed an IC50 in assay [5] of about 10000 nM.
Consider FGGFMRRK-NH2, for which the “Supplementary Table 6: EC50 of β-arrestin-1 recruitment to mACKR3, U87 cells” value with mouse ACKR3 turned out to be 2.31 nM. The molecule further gave a half-inhibitory concentration (IC50) in [5] of 4 nM.
YGGFLRRQFKVVT [Dynorphin B]: in [4], the “Supplementary Table 9: EC50 … CHO cells” value is about 1000 nM; the “Supplementary Table 9: EC50 … HEK cells” value turned out to be 673 nM; the “Supplementary Table 9: EC50 … U87 cells” value was 908 nM. Besides, in [5], the IC50 was about 1000 nM.
For the molecule FGGFMRRK-NH2 (designed binder), the “β-arrestin-1 recruitment (NanoBiT, U87 cells): EC50” value in assay [7] was 0.61 nM.
With YGGFLRRIRPKLKWDNQ [Dynorphin A], in assay [4], the “Supplementary Table 9: EC50 … HEK cells” value was 110 nM and the “Supplementary Table 9: EC50 … U87 cells” value was 97.6 nM. This molecule also gave an IC50 in assay [5] of 85.3 nM.
FGGFTGARKSARK-NH2 (also: ψ(CH2-NH) bond between Phe1 and Gly2) [[Phe1Ψ(CH2-NH)-gly2]nociceptin-(1-13)-NH2]: in assay [4], the “Supplementary Table 9: EC50 … CHO cells” value is about 5000 nM; the “Supplementary Table 9: EC50 … HEK cells” value was 3760 nM; the “Supplementary Table 9: EC50 … U87 cells” value is 4340 nM. In addition, the IC50 in assay [5] was over 10000 nM.
Molecule YPWF-NH2 [Endomorphin-1] showed an IC50 in assay [5] of over 10000 nM.
Regarding YGGFMRRVGRPEWWMDYQKRYG [BAM22], in assay [4], the “Supplementary Table 9: EC50 … CHO cells” value amounted to 12.5 nM; the “Supplementary Table 9: EC50 … HEK cells” value was 23.2 nM; the “Supplementary Table 9: EC50 … U87 cells” value came to 22.9 nM. The molecule also registered an IC50 in assay [5] of 31.3 nM.
GGFLRRIRPKLK-NH2 [Dynorphin A 2-13-NH2]: the IC50 in assay [5] was over 10000 nM.

These data come from PMC7305236 (Nature Communications, 2020).
